Test results published in the DeepSol protein solubility set.

Assay: soluble on expression in E. coli; label from the status in PepcDB or PDB records

Sequence | soluble on expression in E. coli
MRKRARIIYNPTSGKELFKRELPDALIKLEKAGYETSAYATEKIGDATLEAERAMHENYDVLIAAGGDGTLNEVVNGIAEKPNRPKLGVIPMGTVNDFGRALHIPNDIMGALDVIIEGHSTKVDIGKMNNRYFINLAAGGQLTQVSYETPSKLKSIVGPFAYYIKGFEMLPQMKAVDLRIEYDGNVFQGEALLFFLGLTNSMAGFEKLVPDAKLDDGYFTLIIVEKSNLAELGHIMTLASRGEHTKHPKVIYEKAKAINISSFTDLQLNVDGEYGGKLPANFLNLERHIDVFAPNDIVNEELINNDHVDDNLIEEMAGDPLEHHHHHH | not soluble
MRLDGKTALITGSARGIGRAFAEAYVREGARVAIADINLEAARATAAEIGPAACAIALDVTDQASIDRCVAELLDRWGSIDILVNNAALFDLAPIVEITRESYDRLFAINVSGTLFMMQAVARAMIAGGRGGKIINMASQAGRRGEALVGVYCATKAAVISLTQSAGLNLIRHGINVNAIAPGVVDGEHWDGVDAKFADYENLPRGEKKRQVGAAVPFGRMGRAEDLTGMAIFLATPEADYIVAQTYNVDGGNWMS | soluble
MRLIVVGIAEDITEKKQLETELQRLATTDVLTQSSNRRHFFECANREFEQARLQGSSLAFLLLDIDDFKVINDTYGHPEGDIVLQRIAESGRAALRRGDLFGRIGGEEFAAVFPGCTADMARQVAERLQREIQRQNFSHQGQTFTITVSQGLTGLLAEDESLDNLFARADSAMYEAKRQGKNRIITGLEHHHHHH | not soluble
MRLLTIGSGLRGAKVAEILHKKGVKVNRVPLFKCFAVLNNEEHLRSISIGDDRKYYVHGLKGDVSGFVNQITSLYEIFEGSLVLTSLEDDFGYITSLELCQRLRKVTEDAVISLAIVPQLDTSSIGEIKKRIRSLRDVSDILILFEGEVGVERKILEVMNLVALAGEIDLKKRVAGEVVVDTSDVFNALKSDGFAIAGLAERKIPFNFKNLIFRRNSELKAVRTRRMIELTEEALQNVSINGDVENAKSALLLFAGKPDELTMEGLFSSIAMIENINRDIVVRYGDYPIPGSRKVSAVLIFSGIRKFRFA | soluble
MRLVQDYDQQPIMYDEVELLIQAVDQQPHPLLRLRDKAIIQLGLQGGFRRSELANLKVHYLSFMRDKLKVRLPFSKSNQQGLREWKSLPDSEPFAAYHAVKSWLNESQITDGHLFRSISRDGKTLRPYHVNDNSKPKSTFSRNSGFLNGDDIYRIIKQYCLKAGLPAQYYGAHSLRSGCVTQLHENNKDILYIMARTGHTDPRSLRHYLKPKEDLEHHHHHH | soluble
MRLYINEIKIKDDILYCYTEDSIKGLSEVGQMLVDSDNYAFAYTLDDGKAYAYLIFVQETWTMLHENTTKKIIINDELELTEFHQELTYILDNIKGNNNYGKEFVATVEETFDIE | not soluble
MRNEEKHALRRELRRARAQMGHQGRLAAGQTINRLLKRYIKRGRKIGVYWPMGKELRLDGFVRAAQKRGAKLYLPYIEPRSRRMWFTPYPESGMERERIRGRAKLNVPQFAGRKIRVHGLSVLLVPLVGIDREGYRLGQAGGYYDATLAAMKYRLQAKTVGVGFACQFVDRLPREPHDLLLDGFVSEAGILCFLEHHHHHH | not soluble
MRNEEKRALRRELRGRRSQMGRDVRAAATVKINHLLKRYIKKGRKIGVYWPMGKELRLDGFVRAAQKRGAELYLPYIEPRSRRMWFTPYPADGVKQERKRGRAKLHVPQFAGRKKRVHDLNLLLVPVVGMDRLGYRLGQAGGYYDATLSAMKYRLQAKTVGVGFACQLVDRLPVEAHDRSLDGFVSEAGILCF | not soluble
MRNIGIIINKEKDKENKILNLVILKVKEYLNPDEIKVIDQFYKGDYKDLMSLDLLIVLGGDGTLLGVARKFSTVIDTPILGINIGNLGFLVTAEISELDEALYRIKVGDYKVEERMLLSCTIEGVTCSEERALNDIVVARGTLSRMAQYEVFINDELYATFKGDGVIISTPVGSTAYSFSAGGPLIMPDLQIVSIVPICPHTPNSRPMIIDGNNKVRVKPLINESDVFVTIDGQKALKLEKHNEVLIKKAKEFFRIISFDNKSYFKVLRKKLFKIELEHHHHHH | not soluble
